Measurements from paper PMC4255732, “Structural and functional consequences of removing the N-terminal domain from the magnesium chelatase ChlH subunit of Thermosynechococcus elongatus” (Biochemical Journal, 2014).

Key:
[1] = target: T1, ΔN159ChlH (Thermosynechococcus vestitus, UniProt Q8DM52); test: tryptophan fluorescence quenching; type: binding
T1 construct: gene chlH; N-terminal head domain and linker (159 residues) deleted, starts at Met160; His6-tagged (pET9aHis6); E. coli; about 130 kDa
T1 sequence (Q8DM52 entry or part of it, stated change not applied): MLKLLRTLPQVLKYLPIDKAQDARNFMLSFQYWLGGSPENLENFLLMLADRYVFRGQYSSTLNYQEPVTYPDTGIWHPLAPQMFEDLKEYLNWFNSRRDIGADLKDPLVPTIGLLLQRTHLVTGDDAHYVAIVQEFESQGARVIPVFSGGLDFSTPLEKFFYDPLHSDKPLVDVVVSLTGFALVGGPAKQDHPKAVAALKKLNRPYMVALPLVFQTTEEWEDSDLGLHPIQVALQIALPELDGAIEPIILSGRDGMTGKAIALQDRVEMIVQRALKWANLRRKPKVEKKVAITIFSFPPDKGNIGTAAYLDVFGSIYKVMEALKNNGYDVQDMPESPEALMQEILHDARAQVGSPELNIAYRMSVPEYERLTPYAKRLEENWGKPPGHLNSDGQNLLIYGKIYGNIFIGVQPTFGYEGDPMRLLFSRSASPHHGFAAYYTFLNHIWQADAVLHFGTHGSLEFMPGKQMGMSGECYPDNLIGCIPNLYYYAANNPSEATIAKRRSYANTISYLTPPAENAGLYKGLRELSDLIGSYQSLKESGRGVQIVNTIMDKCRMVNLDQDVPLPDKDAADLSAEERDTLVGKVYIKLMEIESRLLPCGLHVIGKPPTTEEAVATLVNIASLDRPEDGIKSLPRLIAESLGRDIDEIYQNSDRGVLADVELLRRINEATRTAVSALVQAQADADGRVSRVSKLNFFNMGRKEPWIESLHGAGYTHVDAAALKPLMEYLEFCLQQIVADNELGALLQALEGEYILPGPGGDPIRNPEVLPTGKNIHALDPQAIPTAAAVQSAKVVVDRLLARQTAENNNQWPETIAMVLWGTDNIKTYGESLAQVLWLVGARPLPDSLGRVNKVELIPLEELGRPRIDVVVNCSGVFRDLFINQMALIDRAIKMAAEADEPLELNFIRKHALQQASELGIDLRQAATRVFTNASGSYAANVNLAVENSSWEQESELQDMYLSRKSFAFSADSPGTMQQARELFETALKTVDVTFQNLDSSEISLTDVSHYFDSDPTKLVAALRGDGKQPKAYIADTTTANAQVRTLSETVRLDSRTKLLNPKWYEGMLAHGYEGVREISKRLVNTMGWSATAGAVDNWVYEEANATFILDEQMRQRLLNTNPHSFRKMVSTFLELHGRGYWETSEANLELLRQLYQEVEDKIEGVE

[2] = target: T2, MgCH (WT ChlH–I–D) (Thermosynechococcus vestitus, UniProt Q8DM52); test: continuous fluorescence assay of MgDIX formation at […] nm; type: biochemical; details: 8 μM DIX, 5 mM ATP, 15 mM MgCl2, 50 mM Mops/KOH pH 7.7, 45 °C, without Gun4
T2 construct: with Magnesium-chelatase subunit ChlI; Magnesium-chelatase subunit ChlD
T2 sequence (Q8DM52 1-1326): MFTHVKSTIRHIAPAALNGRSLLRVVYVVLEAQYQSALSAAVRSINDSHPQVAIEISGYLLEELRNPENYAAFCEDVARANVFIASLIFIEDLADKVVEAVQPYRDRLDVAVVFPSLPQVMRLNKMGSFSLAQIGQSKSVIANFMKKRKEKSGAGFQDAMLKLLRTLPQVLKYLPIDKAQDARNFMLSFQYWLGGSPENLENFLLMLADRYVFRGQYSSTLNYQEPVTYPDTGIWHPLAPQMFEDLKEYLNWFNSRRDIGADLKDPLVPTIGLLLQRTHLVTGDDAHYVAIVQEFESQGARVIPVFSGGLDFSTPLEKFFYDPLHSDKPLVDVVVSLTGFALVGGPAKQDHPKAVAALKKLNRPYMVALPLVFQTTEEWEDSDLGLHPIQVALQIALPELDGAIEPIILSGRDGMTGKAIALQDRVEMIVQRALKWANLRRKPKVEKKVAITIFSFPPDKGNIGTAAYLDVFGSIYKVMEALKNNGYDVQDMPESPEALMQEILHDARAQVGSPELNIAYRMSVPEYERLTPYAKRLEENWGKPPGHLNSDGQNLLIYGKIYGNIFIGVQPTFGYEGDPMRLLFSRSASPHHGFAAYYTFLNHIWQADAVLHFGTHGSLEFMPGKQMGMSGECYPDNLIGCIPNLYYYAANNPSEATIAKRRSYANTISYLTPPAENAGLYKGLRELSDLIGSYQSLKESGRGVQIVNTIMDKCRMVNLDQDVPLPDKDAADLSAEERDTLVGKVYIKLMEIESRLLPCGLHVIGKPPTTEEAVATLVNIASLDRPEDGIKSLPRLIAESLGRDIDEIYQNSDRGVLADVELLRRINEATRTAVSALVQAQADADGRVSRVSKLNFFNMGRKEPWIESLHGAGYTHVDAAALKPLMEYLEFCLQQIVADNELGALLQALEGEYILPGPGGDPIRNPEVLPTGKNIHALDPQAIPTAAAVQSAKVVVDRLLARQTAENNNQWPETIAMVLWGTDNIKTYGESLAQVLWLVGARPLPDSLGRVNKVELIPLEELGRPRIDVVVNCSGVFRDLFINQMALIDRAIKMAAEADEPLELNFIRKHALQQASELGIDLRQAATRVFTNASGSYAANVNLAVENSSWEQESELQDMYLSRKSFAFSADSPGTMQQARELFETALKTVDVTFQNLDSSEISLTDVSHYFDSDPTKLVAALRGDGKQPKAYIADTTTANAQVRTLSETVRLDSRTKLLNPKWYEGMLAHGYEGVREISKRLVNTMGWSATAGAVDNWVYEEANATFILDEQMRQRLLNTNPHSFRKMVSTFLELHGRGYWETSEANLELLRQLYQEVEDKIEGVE
T2 sequence (Q8DIS0 13-367 partner): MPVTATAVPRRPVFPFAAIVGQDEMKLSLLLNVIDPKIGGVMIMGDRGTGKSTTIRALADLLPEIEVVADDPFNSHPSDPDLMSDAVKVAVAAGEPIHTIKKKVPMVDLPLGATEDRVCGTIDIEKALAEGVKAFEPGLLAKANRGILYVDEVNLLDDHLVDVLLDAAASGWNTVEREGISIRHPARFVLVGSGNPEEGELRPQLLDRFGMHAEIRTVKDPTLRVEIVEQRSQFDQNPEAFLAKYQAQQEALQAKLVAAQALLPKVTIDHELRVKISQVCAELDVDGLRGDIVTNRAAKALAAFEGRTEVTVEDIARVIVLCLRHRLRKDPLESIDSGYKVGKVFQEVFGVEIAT
T2 sequence (Q8DJ18 1-668 partner): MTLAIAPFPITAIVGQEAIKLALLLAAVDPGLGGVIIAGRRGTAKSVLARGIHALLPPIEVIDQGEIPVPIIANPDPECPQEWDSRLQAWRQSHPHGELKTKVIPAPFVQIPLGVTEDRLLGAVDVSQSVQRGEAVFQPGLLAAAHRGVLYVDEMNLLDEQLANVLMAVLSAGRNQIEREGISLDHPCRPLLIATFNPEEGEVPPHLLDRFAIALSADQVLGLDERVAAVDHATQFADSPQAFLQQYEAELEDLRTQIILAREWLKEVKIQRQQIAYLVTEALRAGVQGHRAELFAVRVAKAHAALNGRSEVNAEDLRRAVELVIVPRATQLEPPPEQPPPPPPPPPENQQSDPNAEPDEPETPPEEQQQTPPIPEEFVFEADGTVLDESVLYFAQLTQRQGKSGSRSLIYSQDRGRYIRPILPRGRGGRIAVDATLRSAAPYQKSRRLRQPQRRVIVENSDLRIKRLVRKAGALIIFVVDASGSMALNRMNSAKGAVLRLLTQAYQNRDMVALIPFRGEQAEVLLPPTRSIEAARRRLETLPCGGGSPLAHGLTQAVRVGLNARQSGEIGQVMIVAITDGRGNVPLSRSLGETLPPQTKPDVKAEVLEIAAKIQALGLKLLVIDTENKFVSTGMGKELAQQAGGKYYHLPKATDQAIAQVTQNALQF

[3] = target: magnesium chelatase ChlH subunit of Thermosynechococcus elongatus, wild type (Thermosynechococcus elongatus)
[4] = target: ΔN159ChlH, N-terminally truncated ChlH subunit of Thermosynechococcus elongatus (Thermosynechococcus elongatus)
[5] = target: magnesium chelatase ChlH subunit of Thermosynechococcus elongatus, wild type (Thermosynechococcus elongatus); test: FRET or BRET; 0.1 μM ChlH (WT or ΔN159) labelled with Atto 488, titrated with Gun4 labelled with Alexa Fluor 532; quenching of emission at 524 nm; 50 mM Tricine/NaOH, 0.3 M glycerol, 200 mM NaCl, pH 7.7 (methods; the legend says 7.9), 45°C; apparent Kd from eqn (1)
[6] = target: ΔN159ChlH, N-terminally truncated ChlH subunit of Thermosynechococcus elongatus (Thermosynechococcus elongatus); test: as above

Row | Compound | Kd [1] [µM] | continuous fluorescence assay of MgDIX formation at 580 nm [2] | Kapp from steady-state magnesium chelatase rates against [Gun4] (0.1 μM ChlD, 0.2 μM ChlI, 0.4 μM ChlH, 45°C, eqn (2), nd held at 0.4) [3] [µM] | Kapp from steady-state magnesium chelatase rates against [Gun4] (0.1 μM ChlD, 0.2 μM ChlI, 0.4 μM ΔN159ChlH, 45°C, eqn (2), nd held at 0.4) [4] [µM] | Kd [5] [µM] | Kd [6] [µM]
1 | CC1=C(CCC(=O)O)c2cc3nc(cc4[nH]c(cc4C)cc4[nH]c(cc1n2)cc4C)C(C)=C3CCC(=O)O [DIX] | 1.06 ± 0.09 | assayed for in vitro MgCH activity by continuously monitoring fluorescence from the MgDIX product |  |  |  | 
2 | Gun4 protein of Thermosynechococcus elongatus (natural protein) |  |  | 0.39 | 0.05 | 0.009 | 0.016
